In paper PMC9651861 (Science Advances, 2022):

B1: DesAb-RBD-C1 (VHH)
VHH: EVQLEESGGGLVQPGGSLRLSCAASGFNIKDTYIGWVRQAPGKGEEWVASIYPTSGYTRYADSVKGRFTISADTSKNTAYLQMNSLRAEDTAVYYCAAGSGSSATEVYEEFDYWGQGTLVTVSS
B2: DesAb-RBD-C2 (VHH)
VHH: EVQLEESGGGLVQPGGSLRLSCAASGFNIKDTYIGWVRQAPGKGEEWVASIYPTSGYTRYADSVKGRFTISADTSKNTAYLQMNSLRAEDTAVYYCAAGSVVADLSVEEFDYWGQGTLVTVSS

Molecular target: T1, human serum albumin (Homo sapiens, UniProt P02768)
T1 construct: also called HSA
Assay: BLI
Conditions: both partners purified

Row | Binder | binding result
1 | B1 | no binding
2 | B2 | no binding
